Source: patent US20250320281A1

How the values were obtained:
Test in all cases: cell-based or functional assay
[1] = target: HIV-1 94UG103 envelope glycoprotein (Env) on pseudovirus (HIV-1)
[2] = target: HIV-1 Env of isolate 92BR020, clade B, on pseudovirus (HIV-1)
[3] = target: HIV-1 Env of isolate 98CN006 (CRF08 BC) (HIV-1 isolate 98CN006)
[4] = target: HIV-1 Env of isolate MGRM-D-001 (clade D pseudovirus) (HIV-1)
[5] = target: HIV-1 Env of isolate MGRM-D-005 (clade D pseudovirus) (HIV-1)
[6] = target: HIV-1 Env of pseudovirus MGRM-AE-001 (clade CRF01_AE) (HIV-1)
[7] = target: HIV-1 Env of pseudovirus MGRM-AG-005 (clade CRF_AG) (HIV-1)
[8] = target: HIV-1 Env of pseudovirus MGRM-Chronic-B-010 (HIV-1)
[9] = target: HIV-1 Env of pseudovirus MGRM-Chronic-B-012 (HIV-1)
[10] = target: HIV-1 Env of pseudovirus MGRM-F1-006 (HIV-1)
[11] = target: HIV-1 Env of pseudovirus MGRM-F1-012 (HIV-1)
[12] = target: HIV-1 Env of pseudovirus MGRM-F1-014 (HIV-1)
[13] = target: HIV-1 Env of pseudovirus MGRM-F1-018 (HIV-1)
[14] = target: HIV-1 Env of pseudovirus MGRM-F1-021 (HIV-1)
[15] = target: HIV-1 Env of pseudovirus MGRM-G-011 (HIV-1, clade G isolate MGRM-G-011)
[16] = target: HIV-1 Env of pseudovirus MGRM-G-014 (HIV-1, clade G isolate MGRM-G-014)
[17] = target: HIV-1 Env of pseudovirus MGRM-G-027 (HIV-1, clade G isolate MGRM-G-027)
[18] = target: HIV-1 JRCSF envelope glycoprotein (Env) on pseudovirus (HIV-1) (UniProt P20871)
[19] = target: HIV-1 envelope glycoprotein (Env) of isolate 92RW009, clade A (HIV-1)
[20] = target: HIV-1 envelope glycoprotein (Env) of isolate 94KE105, listed under clade A (HIV-1)
[21] = target: HIV-1 envelope glycoprotein (Env) of isolate MGRM-A-006, clade A (HIV-1)
[22] = target: HIV-1 envelope glycoprotein (Env) of isolate MGRM-A-009, clade A (HIV-1)
[23] = target: HIV-1 Env of isolate 98CN009 (pseudovirus) (HIV-1)
[24] = target: HIV-1 Env of isolate 98IN022 (HIV-1)
[25] = target: HIV-1 Env of isolate APV_6 (subtype B pseudovirus) (HIV-1)
[26] = target: HIV-1 Env of isolate MGRM-AE-008 (HIV-1)
[27] = target: HIV-1 Env of isolate MGRM-D-005 (pseudovirus) (HIV-1)
[28] = target: HIV-1 Env of isolate MGRM-D-011 (pseudovirus) (HIV-1)
[29] = target: HIV-1 Env of isolate MGRM-D-028 (pseudovirus) (HIV-1)
[30] = target: HIV-1 Env of isolate QH0692.42 (subtype B pseudovirus) (HIV-1)
[31] = target: HIV-1 Env of isolate SC422661.8 (subtype B pseudovirus) (HIV-1)

1443_C16 (PG16) (TCN-116) (antibody), sequence (VH): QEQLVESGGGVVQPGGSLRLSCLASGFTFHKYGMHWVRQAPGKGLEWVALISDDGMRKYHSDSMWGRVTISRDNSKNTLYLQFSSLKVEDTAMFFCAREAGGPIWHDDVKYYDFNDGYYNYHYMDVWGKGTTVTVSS
1443_C16 (PG16) (TCN-116) (antibody), sequence (VL): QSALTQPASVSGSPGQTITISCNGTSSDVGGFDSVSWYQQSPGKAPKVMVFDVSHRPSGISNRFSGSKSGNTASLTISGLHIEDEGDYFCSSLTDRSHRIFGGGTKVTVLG

Substance	IC50, pseudovirus neutralization [1] [µg/mL]	IC50 (µg/ml), pseudovirus neutralization [2] [µg/mL]	IC50 (µg/ml), pseudovirus neutralization [3] [µg/mL]	IC50 (µg/ml), pseudovirus neutralization [4] [µg/mL]	IC50 (µg/ml), pseudovirus neutralization [5] [µg/mL]	IC50 [6] [µg/mL]	IC50 [7] [µg/mL]	IC50 (µg/ml), pseudovirus neutralization [8] [µg/mL]	IC50 (µg/ml), pseudovirus neutralization [9] [µg/mL]	IC50 (µg/ml), pseudovirus neutralization [10] [µg/mL]	IC50 (µg/ml), pseudovirus neutralization [11] [µg/mL]	IC50 (µg/ml), pseudovirus neutralization [12] [µg/mL]	IC50 (µg/ml), pseudovirus neutralization [13] [µg/mL]	IC50 (µg/ml), pseudovirus neutralization [14] [µg/mL]	IC50 (µg/ml), pseudovirus neutralization [15] [µg/mL]	IC50 (µg/ml), pseudovirus neutralization [16] [µg/mL]	IC50 (µg/ml), pseudovirus neutralization [17] [µg/mL]	IC50, pseudovirus neutralization [18] [µg/mL]	IC50 (µg/ml), pseudovirus neutralization [19] [µg/mL]	IC50 (µg/ml), pseudovirus neutralization [20] [µg/mL]	also measured
4E10 (antibody)	9.7	> 50	1.91	1.84	35.2	0.85	2.13	1.69	48	1.01	0.37	7.36	3.6	1.87	1.44	13.7	1.19	6	> 50	7.63	IC90 (pseudovirus neutralization) [18]: 44.1 µg/mL; IC50 (µg/ml), pseudovirus neutralization [21]: 9.87 µg/mL; IC50 (µg/ml), pseudovirus neutralization [22]: 12 µg/mL
1443_C16 (PG16) (TCN-116) (antibody)	0.008	> 50	> 50	> 50	19.7	4.33	> 50	0.01	3.74	0.27	0.003	0.01	0.01	> 50	0.04	6.98	0.01	< 0.0025	0.11	6.13	IC90 (pseudovirus neutralization) [18]: 0.013 µg/mL; IC50 (µg/ml), pseudovirus neutralization [21]: > 50 µg/mL; IC50 (µg/ml), pseudovirus neutralization [22]: 0.01 µg/mL
b12 (antibody)	3.54	> 50	> 50	> 50	> 50	25.9	> 50	> 50	> 50	> 50	> 50	> 50	> 50	> 50	> 50	> 50	> 50	0.16	> 50	> 50	IC90 (pseudovirus neutralization) [18]: 1.17 µg/mL; IC50 (µg/ml), pseudovirus neutralization [21]: 13.6 µg/mL; IC50 (µg/ml), pseudovirus neutralization [22]: 4.34 µg/mL
2F5 (antibody)	3.79	> 50	> 50	0.63	> 50	0.29	> 50	0.96	17.6	1.1	> 50	15.1	3.91	1.37	1.16	9.65	0.28	3.36	39.1	> 50	IC90 (pseudovirus neutralization) [18]: 25.3 µg/mL; IC50 (µg/ml), pseudovirus neutralization [21]: 15.7 µg/mL; IC50 (µg/ml), pseudovirus neutralization [22]: 9.4 µg/mL
2G12 (antibody)	> 50	4.84	> 50	> 50	25.7	> 50	> 50	1.5	0.22	> 50	1.81	> 50	> 50	14.1	> 50	> 50	> 50	0.66	26.1	7.22	IC90 (pseudovirus neutralization) [18]: 5.38 µg/mL; IC50 (µg/ml), pseudovirus neutralization [21]: 13.8 µg/mL; IC50 (µg/ml), pseudovirus neutralization [22]: 7.47 µg/mL
4858_P08 (PGT-123) (antibody)	–	–	–	–	–	–	–	–	–	–	–	–	–	–	–	–	–	–	–	–	neutralization IC50 [1]: 0.846 µg/mL; neutralization IC80 [1]: 3.29 µg/mL; neutralization IC90 [1]: 8.56 µg/mL; neutralization IC95 [1]: > 10 µg/mL; IC50, pseudovirus neutralization [23]: 0.007 µg/mL; neutralization IC50 [24]: 0.011 µg/mL; IC50 (µg/mL), pseudovirus neutralization [25]: 0.023 µg/mL; IC50 [26]: > 50 µg/mL; IC50, pseudovirus neutralization [27]: > 50 µg/mL; IC50, pseudovirus neutralization [28]: 0.012 µg/mL; IC50, pseudovirus neutralization [29]: 0.132 µg/mL; IC50 (µg/mL), pseudovirus neutralization [30]: 0.158 µg/mL; IC50 (µg/mL), pseudovirus neutralization [31]: 0.039 µg/mL; neutralization IC50 [18]: 0.0423 µg/mL; neutralization IC80 [18]: 0.143 µg/mL; neutralization IC90 [18]: 0.289 µg/mL; neutralization IC95 [18]: 0.547 µg/mL
1495_C14 (PGC14) (antibody)	> 50	4	> 50	> 50	> 50	> 50	> 50	27	> 50	> 50	> 50	> 50	> 50	46	> 50	> 50	> 50	> 50	> 50	> 50	IC50 (µg/ml), pseudovirus neutralization [21]: > 50 µg/mL; IC50 (µg/ml), pseudovirus neutralization [22]: > 50 µg/mL
